Our source for the α-galactosidase activity values is PMC2935870.

This test deals with pGBKT7-53. Description: two-hybrid.

Turning to pGADT7-T (domain or fragment), the α-galactosidase activity was 22.
